Source: article PMC13082787, “A lipoprotein partner for the Escherichia coli outer membrane protein TolC” (eLife, 2026)
Several values for one entry are separate records, joined by “and”; a condition that tells them apart may be missing. Equal values may be shown once.

T1: Detergent-purified FLAG-tagged TolC (E. coli, UniProt P02930 23-493)
T1 construct: also called TolC-FLAG; source: detergent-purified
T1 sequence (looked up): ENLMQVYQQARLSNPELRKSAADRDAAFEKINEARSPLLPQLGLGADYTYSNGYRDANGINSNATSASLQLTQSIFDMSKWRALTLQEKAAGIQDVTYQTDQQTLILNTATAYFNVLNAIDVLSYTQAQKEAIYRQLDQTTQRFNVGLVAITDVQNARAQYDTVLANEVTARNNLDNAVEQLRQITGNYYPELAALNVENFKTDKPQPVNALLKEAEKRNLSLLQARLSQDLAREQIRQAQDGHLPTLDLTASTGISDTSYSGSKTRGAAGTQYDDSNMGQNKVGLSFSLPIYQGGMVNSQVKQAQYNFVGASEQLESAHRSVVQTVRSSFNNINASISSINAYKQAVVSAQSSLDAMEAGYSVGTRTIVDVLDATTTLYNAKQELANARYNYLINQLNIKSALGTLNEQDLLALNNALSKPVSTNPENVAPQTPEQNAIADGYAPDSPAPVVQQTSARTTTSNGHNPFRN

T2: TolC-FLAG (DDM-purified full-length TolC with a C-terminal FLAG-tag) (E. coli, UniProt P02930 23-493)
T2 construct: also called FLAG-tagged TolC; source: DDM-purified TolC-FLAG; not shown: FLAG, C-terminal, kept
T2 sequence (looked up): T1 sequence (looked up)

B1: Soluble YbjP (D28-R171) with an N-terminal His-tag (domain or fragment, E. coli, UniProt P75818 28-171, looked up)
chain: DNGTRSGPCVEGGPDNVAQQFYDYRILHRSNDITALRPYLSDKLATLLSDASRDNNHRELLTNDPFSSRTTLPDSAHVASASTIPNRDARNIPLRVDLKQGDQGWQDEVLMIQEGQCWVIDDVRYLGGSVHATAGTLRQSIENR
notes: also called YbjPs; YbjP_(28-171); not shown: His tag, N-terminal, kept
B2: soluble YbjP (YbjPs), residues 28-171, N-terminally His-tagged (domain or fragment, E. coli, UniProt P75818 28-171, looked up)
chain: B1 chain
notes: also called YbjP_(28-171); YbjP soluble; source: E. coli BL21 (DE3), purified from the cytoplasm (HisTrap FF, dialysis); not shown: His-tag, N-terminal, kept

Key:
[1] = molecular target: T1, Detergent-purified FLAG-tagged TolC; assay: ITC; ITC200, 25°C; 230 µM N-terminally His-tagged soluble YbjP injected into 40 µM TolC; 20 mM HEPES pH 7.5, 200 mM NaCl, 0.03% DDM; single-site model; details: both partners purified
[2] = molecular target: T2, TolC-FLAG (DDM-purified full-length …); assay: ITC; N-terminally His-tagged YbjPs at 230 µM injected into 40 µM TolC-FLAG in the cell; 25°C; 20 mM HEPES pH 7.5, 200 mM NaCl, 0.03% (wt/vol) DDM; single-site binding model; two independent measurements; details: both partners purified

| Binder | Kd [1] | Kd [2] | stoichiometry N [2] |
| --- | --- | --- | --- |
| B1 | ~4 µM |  |  |
| B2 |  | 4.1 µM and 5.9 µM and 5 µM | 0.64 and 0.42 and 0.53 |
